This is an account of results in the RNAGym collection of RNA variant scans (doi:10.7554/elife.90254).

First the molecules themselves.
B1: LINE1-full (parent)
chain: UACGUAGGUGGUUUUCCCCUGAUAGUGCUAAGGGGGCCUGGAAGUUUGGACUGGGCAGAGCUCAACACAGCGUGGCAAAGUGGCUGUGGCUAGACUGCCUCUCUGGAUUCCUCGUCACUCAGCAGGGCAUCUCUGAGAGAAAUGCC

The data set covers variants of B1. Nature of the data set: self-cleavage, relative activity (ratio to wild type); higher = more cleavage; in vitro, sequencing; the parent is a self-cleaving ribozyme.
Take UACGUAGGUGGUUUUCCCCUGAUAGUGCUAAGAGGGCCUGGAGGUUUGGACUGGGCAGAGCUCAACACAGCGUGGCAAAGUGGCUGUGGCUAGACUGCCUCUCUGGAUUCCUCGUCACUCAGCAGGGCAUCUCUGAGAGAAAUGCC [G33A A43G]: the self-cleavage came to 1.29.

UACGUAGGUGGUUUUCCCCUGAUAGUGCUAAGAGGGCCUGGAAGUUUGGACUGGGCAGAGCUCAACACAGCGUGGCUAAGUGGCUGUGGCUAGACUGCCUCUCUGGAUUCCUCGUCACUCAGCAGGGCAUCUCUGAGAGAAAUGCC [G33A A77U]: the self-cleavage is 1.47.

For the variant UACGUAGGUGGUUUUCCCCUGAUAGUGCUAAGAGGGCCUGGAAGUUUGGACUGGGCAGAGCUCAACACAGCGUGGCAAAGUGGCUGUGGCUAGACUGCCUCUCUGGAUUCCUCGCCACUCAGCAGGGCAUCUCUGAGAGAAAUGCC [G33A U115C], the self-cleavage came out at 1.48.

Take UACGUAGGUGGUUUUCCCCUGAUAGUGCUAAGAGGGCCUGGAAGUUUGGACUGGGCAGAGCUCAACACAGCGUGGCAAAGUGGCUGUGGCUAGACUGCCUCUCUGGAUUCCUCGUCACUCAGCAGGGCAUCUCUGAGAGAGAUGCC [G33A A141G]: the self-cleavage worked out at 1.01.

With UACGUAGGUGGUUUUCCCCUGAUAGUGCUAAGAGGGCCUGGAAGAUUGGACUGGGCAGAGCUCAACACAGCGUGGCAAAGUGGCUGUGGCUAGACUGCCUCUCUGGAUUCCUCGUCACUCAGCAGGGCAUCUCUGAGAGAAAUGCC [G33A U45A], the self-cleavage came out at 0.86.

Regarding UACGUAGGUGGUUUUCCCCUGAUAGUGCUAAGCGGGCCUGGAAGUUUGGACUGGGCAGGGCUCAACACAGCGUGGCAAAGUGGCUGUGGCUAGACUGCCUCUCUGGAUUCCUCGUCACUCAGCAGGGCAUCUCUGAGAGAAAUGCC [G33C A59G], the self-cleavage was found to be 0.

With UACGUAGGUGGUUUUCCCCUGAUAGUGCUAAGAGGGCCUGGAAGUUUGGACUGGGCAGAGCUCAACACAGCGUGGCAAAGUGGCUGUGGCUAGACUGCCUCUCUGGAUUCCUCGUCACUCGGCAGGGCAUCUCUGAGAGAAAUGCC [G33A A121G], the self-cleavage turned out to be 1.28.

For UACGUAGGUGGUUUUCCCCUGAUAGUGCUAAGAGGGCCUGGAAGUUUGGACUGGGCAGAGCUCAACACAGCGUGGCAAAGUGGCUGUGGCAAGACUGCCUCUCUGGAUUCCUCGUCACUCAGCAGGGCAUCUCUGAGAGAAAUGCC [G33A U91A], the self-cleavage was 0.59.

For the variant UACGUAGGUGGUUUUCCCCUGAUAGUGCUAAGAGGGCCUGGAAGUUUGGACUGGGCGGAGCUCAACACAGCGUGGCAAAGUGGCUGUGGCUAGACUGCCUCUCUGGAUUCCUCGUCACUCAGCAGGGCAUCUCUGAGAGAAAUGCC [G33A A57G], the self-cleavage stood at 0.56.

In the case of UACGUAGGUGGUUUUCCCCUGAUAGUGCUAAGCGGGCCUGGAAGUUUGGACUGGGCAGAGCUCAACACAGCGUGGCAAAGUGGCUGUGGCUAGACUGCCUCUCUGGAUUCCUCGUCACUCGGCAGGGCAUCUCUGAGAGAAAUGCC [G33C A121G], the self-cleavage was found to be 0.21.

As for UACGUAGGUGGUUUUCCCCUGAUAGUGCUAAGCGGGCCUGGAAGUUUGGACUGGGCAGAGCUCAACACAGCGUGGCAAGGUGGCUGUGGCUAGACUGCCUCUCUGGAUUCCUCGUCACUCAGCAGGGCAUCUCUGAGAGAAAUGCC [G33C A79G], the self-cleavage was 1.78.

On to UACGUAGGUGGUUUUCCCCUGAUAGUGCUAAGUGGGCCUGGAUGUUUGGACUGGGCAGAGCUCAACACAGCGUGGCAAAGUGGCUGUGGCUAGACUGCCUCUCUGGAUUCCUCGUCACUCAGCAGGGCAUCUCUGAGAGAAAUGCC [G33U A43U], for which the self-cleavage worked out at 0.54.

As for UACGUAGGUGGUUUUCCCCUGAUAGUGCUAAGCGGGCCUGGAAGUUUGGACUGGGCAGAGCUCAGCACAGCGUGGCAAAGUGGCUGUGGCUAGACUGCCUCUCUGGAUUCCUCGUCACUCAGCAGGGCAUCUCUGAGAGAAAUGCC [G33C A65G], the self-cleavage was 0.

On to UACGUAGGUGGUUUUCCCCUGAUAGUGCUAAGAGGGCCUGGAAGUUUGGACUGGGCAGAGCUCAACACAGCGUGGCAAAGUGGCUGUGGCUAGACUGCCUCACUGGAUUCCUCGUCACUCAGCAGGGCAUCUCUGAGAGAAAUGCC [G33A U102A], for which the self-cleavage came out at 0.64.

With UACGUAGGUGGUUUUCCCCUGAUAGUGCUAAGCGGGCCUGGAAGUUUGGACUGGGCAGAGCUCAACACAGCGUGGCAAAGUGGCUGUGGCUAGACUGCCUCUCUGGAUUCCUCGUCACUCAGCAGGGCUUCUCUGAGAGAAAUGCC [G33C A129U], the self-cleavage turned out to be 1.69.

Consider UACGUAGGUGGUUUUCCCCUGAUAGUGCUAAGUGGGCCUGGAAGUUUGGUCUGGGCAGAGCUCAACACAGCGUGGCAAAGUGGCUGUGGCUAGACUGCCUCUCUGGAUUCCUCGUCACUCAGCAGGGCAUCUCUGAGAGAAAUGCC [G33U A50U], for which the self-cleavage is 1.14.

As to UACGUAGGUGGUUUUCCCCUGAUAGUGCUAAGAGGGCCUGGAAGUUUGGACUGGGCAGAGCUCAACACAGCGUGGCAAAGUGGCUGUGGCUAGACUGCCUCUCUGGAUUCCUCGUCACUCAGCAGGGCAUCUCUGAGAGAAGUGCC [G33A A142G], the self-cleavage turned out to be 1.2.

Consider UACGUAGGUGGUUUUCCCCUGAUAGUGCUAAGCGGGCCUGGAAGUUUGGACUGGGCAGAGCUCAACACAGCGUGGCAAAGUGGCUGGGGCUAGACUGCCUCUCUGGAUUCCUCGUCACUCAGCAGGGCAUCUCUGAGAGAAAUGCC [G33C U87G], for which the self-cleavage worked out at 0.22.

As to UACGUAGGUGGUUUUCCCCUGAUAGUGCUAAGAGGGCCUGGAAGUUUGGACUGGGCAGAGCUCAACACAGCGUGGCAAAGUGGCUGUGGCUAGACUGCCUCUCUGGAUUCCUCGUCGCUCAGCAGGGCAUCUCUGAGAGAAAUGCC [G33A A117G], the self-cleavage was determined as 1.91.

UACGUAGGUGGUUUUCCCCUGAUAGUGCUAAGAGGGCCUGGAAGUUUGGACUGGGCAGAGCUCAACACAGCGUGGCAAAGUGGCUGUGGCUAGACUGCCUCUCUGGGUUCCUCGUCACUCAGCAGGGCAUCUCUGAGAGAAAUGCC [G33A A107G]: the self-cleavage came to 1.52.

On to UACGUAGGUGGUUUUCCCCUGAUAGUGCUAAGCGGGCCUGGAAGUUUGGACUGGGCAGAGCUCAACACAGCGUGGCAAAGUGGCUGUGGCUAGACAGCCUCUCUGGAUUCCUCGUCACUCAGCAGGGCAUCUCUGAGAGAAAUGCC [G33C U96A], for which the self-cleavage is 0.05.

For the variant UACGUAGGUGGUUUUCCCCUGAUAGUGCUAAGAGGGCCUGGAAGUUUGGGCUGGGCAGAGCUCAACACAGCGUGGCAAAGUGGCUGUGGCUAGACUGCCUCUCUGGAUUCCUCGUCACUCAGCAGGGCAUCUCUGAGAGAAAUGCC [G33A A50G], the self-cleavage stood at 1.02.

As to UACGUAGGUGGUUUUCCCCUGAUAGUGCUAAGAGGGCCUGGAAGUUUGGACUGGGCAGAGCUCAACACAGCGUGGCAAAGUGGCUGUGGCUAGACUGCCUCUCUGGAUUCCUCGUCACUCAGCAGGGCAUCCCUGAGAGAAAUGCC [G33A U132C], the self-cleavage was found to be 1.47.

In the case of UACGUAGGUGGUUUUCCCCUGAUAGUGCUAAGCGGGCCUGGAAGUUUGGACUGGGCAGAGCUCAACACAGCGUGGCAAAGUGGCUGUGGCUAGACUGCCUCUCUGGAUUCCUCGUCUCUCAGCAGGGCAUCUCUGAGAGAAAUGCC [G33C A117U], the self-cleavage came out at 0.85.

UACGUAGGUGGUUUUCCCCUGAUAGUGCUAAGAGGGCCUGGAAGUUUGGACUGGGCAGAGCUCAACACAGCGUGGCAAAGUGGCUGUGGCUAGACCGCCUCUCUGGAUUCCUCGUCACUCAGCAGGGCAUCUCUGAGAGAAAUGCC [G33A U96C]: the self-cleavage came out at 0.12.

As to UACGUAGGUGGUUUUCCCCUGAUAGUGCUAAGAGGGCCUGGAAGUUUGGACUGGGCAGAGCUCAACACAGCGUGGUAAAGUGGCUGUGGCUAGACUGCCUCUCUGGAUUCCUCGUCACUCAGCAGGGCAUCUCUGAGAGAAAUGCC [G33A C76U], the self-cleavage is 1.87.

UACGUAGGUGGUUUUCCCCUGAUAGUGCUAAGAGGGCCUGGAAGUUUGGACUGGGCAGAGCUCAACACAGCGUGGCAAAGUGGCUGUGGCUAGACUGCCUCUCUGGAUUCCUCGUCACUCAGCAGGGCAUCUCUGAGGGAAAUGCC [G33A A138G]: the self-cleavage came to 1.36.

Regarding UACGUAGGUGGUUUUCCCCUGAUAGUGCUAAGCGGGCCUGGAAGUUUGGACUGGGCAGAGCUCAACACAGCGUGGCAAAGUGGCUGUGGCUAGACUGCCUCUCAGGAUUCCUCGUCACUCAGCAGGGCAUCUCUGAGAGAAAUGCC [G33C U104A], the self-cleavage worked out at 1.27.

On to UACGUAGGUGGUUUUCCCCUGAUAGUGCUAAGCGGGCCUGGAAGUUUGGACUGGGCAGAGCUCAACACGGCGUGGCAAAGUGGCUGUGGCUAGACUGCCUCUCUGGAUUCCUCGUCACUCAGCAGGGCAUCUCUGAGAGAAAUGCC [G33C A69G], for which the self-cleavage turned out to be 0.58.

With UACGUAGGUGGUUUUCCCCUGAUAGUGCUAAGAGGGCCUGGAAGUUUGGACUGGGUAGAGCUCAACACAGCGUGGCAAAGUGGCUGUGGCUAGACUGCCUCUCUGGAUUCCUCGUCACUCAGCAGGGCAUCUCUGAGAGAAAUGCC [G33A C56U], the self-cleavage is 0.35.

For UACGUAGGUGGUUUUCCCCUGAUAGUGCUAAGCGGGCCUGGAAGUUUGGACUGGGCAGAGCCCAACACAGCGUGGCAAAGUGGCUGUGGCUAGACUGCCUCUCUGGAUUCCUCGUCACUCAGCAGGGCAUCUCUGAGAGAAAUGCC [G33C U62C], the self-cleavage was 0.1.

On to UACGUAGGUGGUUUUCCCCUGAUAGUGCUAAGCGGGCCUGGAAGUUUGGACUGGGCAGAGCUCAACACAGCGUGGCAAAGUGGCUGUGGCUAGACUGCCCCUCUGGAUUCCUCGUCACUCAGCAGGGCAUCUCUGAGAGAAAUGCC [G33C U100C], for which the self-cleavage stood at 1.63.

For UACGUAGGUGGUUUUCCCCUGAUAGUGCUAAGCGGGCCUGGAAGUUUGGACUGGGCAGAGCUCAACACAGCGUGGCAAAGUGGCUGUGGCUAGACUGCCUCUCUGGAUUCCUCGUCACUCAGCAGGGUAUCUCUGAGAGAAAUGCC [G33C C128U], the self-cleavage was 0.92.

Regarding UACGUAGGUGGUUUUCCCCUGAUAGUGCUAAGCGGGCCUGGAAGUAUGGACUGGGCAGAGCUCAACACAGCGUGGCAAAGUGGCUGUGGCUAGACUGCCUCUCUGGAUUCCUCGUCACUCAGCAGGGCAUCUCUGAGAGAAAUGCC [G33C U46A], the self-cleavage came out at 1.45.

Take UACGUAGGUGGUUUUCCCCUGAUAGUGCUAAGAGGGCCUGGAAGUUUGGACUGGGCAGAGCUCAACACAGCGUGGCAAAGUGGCUGUGGCUAGACUGCCUCUCUGGAUUCCUCGUCACUCAGCAGGGCAUCUCUGUGAGAAAUGCC [G33A A136U]: the self-cleavage was 1.69.

Take UACGUAGGUGGUUUUCCCCUGAUAGUGCUAAGCGGGCCUGGAAGUUUGGACUGGGCAGAGCUCAACACAGCGUGGCAAAGUGGCUGUGGCCAGACUGCCUCUCUGGAUUCCUCGUCACUCAGCAGGGCAUCUCUGAGAGAAAUGCC [G33C U91C]: the self-cleavage turned out to be 0.41.

As to UACGUAGGUGGUUUUCCCCUGAUAGUGCUAAGAGGGCCUGGAAGUUUGGACUGGGCAGAGCUCAACACAGCGUGGCAAAGUGGCUGCGGCUAGACUGCCUCUCUGGAUUCCUCGUCACUCAGCAGGGCAUCUCUGAGAGAAAUGCC [G33A U87C], the self-cleavage is 0.2.

In the case of UACGUAGGUGGUUUUCCCCUGAUAGUGCUAAGAGGGCCUGGAAGUUUGGACUGGGCAGAGCUCAACACAGCGUGGCAAAGUGGCUGUGGCUAGACUGCCUCUCUGGAUCCCUCGUCACUCAGCAGGGCAUCUCUGAGAGAAAUGCC [G33A U109C], the self-cleavage turned out to be 1.05.

Regarding UACGUAGGUGGUUUUCCCCUGAUAGUGCUAAGCGGGCCUGGAAGUUUGGACUGGGCAGAGCUCAACACAGCGUGGCAAAGUGGCUGUGGCUAGACUGCCUCUCUGGAUUCCUCGUCACCCAGCAGGGCAUCUCUGAGAGAAAUGCC [G33C U119C], the self-cleavage was found to be 1.8.
